Reference: publication PMC3750073 (Biochemistry, 2013)

Key:
[1] = tested on: Nc1ccn([C@@H]2O[C@H](COP(=O)(O)O)[C@@H](O)[C@H]2O)c(=O)n1; assay: purified protein; conditions: pH 7.5; 37.0 °C
[2] = tested on: Nc1ccn([C@H]2C[C@H](O)[C@@H](COP(=O)(O)O)O2)c(=O)n1; assay: purified protein; conditions: pH 7.5; 37.0 °C
crystal structure = target: the molecule itself; assay: crystal structure

(Streptomyces rimofaciens)
Km [1]: 3.8 (0.5) mM
kcat/Km [1]: 5.2 M⁻¹ s⁻¹
Km [2]: 5.4 (0.8) mM
kcat/Km [2]: 1.1 M⁻¹ s⁻¹

B1: SeMet MilB (selenomethionine-containing MilB, CMP hydrolase of Streptomyces rimofaciens ZJU5119) (enzyme, UniProt B4Y381 1-170, looked up)
chain: MTTTPKPRTAPAVGSVFLGGPFRQLVDPRTGVMSSGDQNVFSRLIEHFESRGTTVYNAHRREAWGAEFLSPAEATRLDHDEIKAADVFVAFPGVPASPGTHVEIGWASGMGKPMVLLLERDEDYAFLVTGLESQANVEILRFSGTEEIVERLDGAVARVLGRAGEPTVIG
modifications: selenomethionine (SeMet-containing protein)
stoichiometry N (crystal structure): 2
